Source: US20240117018A1

Tests used:
Assay in all cases: cell-based or functional assay
[1] = target: HIV-1 Env pseudovirus CAAN5342.A2 (HIV-1)
[2] = target: HIV-1 Env pseudovirus CNE17 (HIV-1)
[3] = target: HIV-1 Env pseudovirus CNE19 (HIV-1)
[4] = target: HIV-1 Env pseudovirus CNE30 (HIV-1)
[5] = target: HIV-1 Env pseudovirus TRO.11 (HIV-1)
[6] = target: HIV-1 Env pseudovirus 249M B10 (HIV-1)
[7] = target: HIV-1 Env pseudovirus ZM197M.PB7 (HIV-1)
[8] = target: HIV-1 Env pseudovirus Ce2010_F5 (HIV-1)
[9] = target: HIV-1 Env pseudovirus HIV-001428-2.42 (HIV-1)
[10] = target: HIV-1 Env pseudovirus HIV-16055-2.3 (HIV-1)
[11] = target: HIV-1 Env pseudovirus ZM53M.PB12 (HIV-1)
[12] = target: HIV-1 Env pseudovirus THRO4156.18 (HIV-1)
[13] = target: HIV-1 Env pseudovirus 1006_11_C3_1601 (HIV-1)
[14] = target: HIV-1 Env pseudovirus PVO.4 (HIV-1)
[15] = target: HIV-1 Env pseudovirus 1056_10_TA11_1826 (HIV-1)
[16] = target: HIV-1 Env pseudovirus Ce704809221_1B3 (HIV-1)
[17] = target: HIV-1 Env pseudovirus 231965.c01 (HIV-1)
[18] = target: HIV-1 Env pseudovirus X1632_S2_B10 (HIV-1)
[19] = target: HIV-1 Env pseudovirus 3103.v3.c10 (HIV-1)
[20] = target: HIV-1 Env pseudovirus 3301.v1.c24 (HIV-1)
[21] = target: HIV-1 Env pseudovirus 6811.v7.c18 (HIV-1)
[22] = target: HIV-1 Env pseudovirus 235-47 (HIV-1)
[23] = target: HIV-1 Env pseudovirus X2088_c9 (HIV-1)

N49P11 (antibody) gave an IC50 [1] of 9.03 µg/mL, an IC80 [1] of 20.8 µg/mL and an MPI [1] of 100. It also gave an IC50 [2] of 6.68 µg/mL, an IC80 [2] of 25.6 µg/mL and an MPI [2] of 100. For the same substance, the IC50 [3] was 0.437 µg/mL, the IC80 [3] was 5.5 µg/mL and the MPI [3] was 100. It also gave an IC50 [4] of 0.889 µg/mL, an IC80 [4] of 4.45 µg/mL and an MPI [4] of 100. For the same substance, the IC50 [5] was 0.179 µg/mL, the IC80 [5] was 0.937 µg/mL and the MPI [5] was 100. For the same substance, the IC50 [6] was 3.54 µg/mL, the IC80 [6] was 12.9 µg/mL and the MPI [6] was 100. It also gave an IC50 [7] of 0.303 µg/mL, an IC80 [7] of 1.59 µg/mL and an MPI [7] of 100. The IC50 [8] was 0.38 µg/mL, the IC80 [8] was 3.27 µg/mL and the MPI [8] was 100. It also gave an IC50 [9] of 0.221 µg/mL, an IC80 [9] of 1.64 µg/mL and an MPI [9] of 100. It also gave an IC50 [10] of 0.091 µg/mL, an IC80 [10] of 0.503 µg/mL and an MPI [10] of 100. It also gave an IC50 [11] of 1.05 µg/mL, an IC80 [11] of 6.53 µg/mL and an MPI [11] of 100. For the same substance, the IC50 [12] was 1.84 µg/mL, the IC80 [12] was 10.4 µg/mL and the MPI [12] was 100. For the same substance, the IC50 [13] was 0.125 µg/mL, the IC80 [13] was 0.487 µg/mL and the MPI [13] was 100. It also gave an IC50 [14] of 0.248 µg/mL, an IC80 [14] of 1.17 µg/mL and an MPI [14] of 100. It also gave an IC50 [15] of 4.77 µg/mL, an IC80 [15] of 14.2 µg/mL and an MPI [15] of 100. For the same substance, the IC50 [16] was 0.644 µg/mL, the IC80 [16] was 3.3 µg/mL and the MPI [16] was 100.
In the case of N49P7.2 (antibody), the IC50 [1] was 0.809 µg/mL, the IC80 [1] was 2.81 µg/mL and the MPI [1] was 100. The IC50 [2] was 0.376 µg/mL, the IC80 [2] was 1.24 µg/mL and the MPI [2] was 100. The IC50 [3] was 0.033 µg/mL, the IC80 [3] was 0.129 µg/mL and the MPI [3] was 100. It also gave an IC50 [4] of 0.362 µg/mL, an IC80 [4] of 1.2 µg/mL and an MPI [4] of 100. The IC50 [5] was 0.113 µg/mL, the IC80 [5] was 0.306 µg/mL and the MPI [5] was 100. For the same substance, the IC50 [6] was 0.095 µg/mL, the IC80 [6] was 0.349 µg/mL and the MPI [6] was 100. The IC50 [7] was 0.223 µg/mL, the IC80 [7] was 1.37 µg/mL and the MPI [7] was 100. It also gave an IC50 [8] of 0.398 µg/mL, an IC80 [8] of 1.29 µg/mL and an MPI [8] of 100. For the same substance, the IC50 [9] was 0.01 µg/mL, the IC80 [9] was 0.036 µg/mL and the MPI [9] was 100. The IC50 [10] was 0.204 µg/mL, the IC80 [10] was 0.721 µg/mL and the MPI [10] was 100. For the same substance, the IC50 [11] was 0.477 µg/mL, the IC80 [11] was 1.73 µg/mL and the MPI [11] was 100. The IC50 [12] was 6.29 µg/mL, the IC80 [12] was 33.3 µg/mL and the MPI [12] was 94. The IC50 [13] was 0.085 µg/mL, the IC80 [13] was 0.237 µg/mL and the MPI [13] was 100. For the same substance, the IC50 [14] was 0.237 µg/mL, the IC80 [14] was 0.831 µg/mL and the MPI [14] was 100. It also gave an IC50 [15] of 0.114 µg/mL, an IC80 [15] of 0.771 µg/mL and an MPI [15] of 100. It also gave an IC50 [16] of 0.874 µg/mL, an IC80 [16] of 3.88 µg/mL and an MPI [16] of 100.
VRC01 (antibody) showed an IC50 (Titer in TZM.bl cells) [1] of 0.82 µg/mL, an IC80 (Titer in TZM.bl cells) [1] of 2.8 µg/mL and an IC50 (Titer in TZM.bl cells) [17] of 0.34 µg/mL. The IC80 (Titer in TZM.bl cells) [17] was 1.2 µg/mL, the IC50 (Titer in TZM.bl cells) [18] was 0.12 µg/mL and the IC80 (Titer in TZM.bl cells) [18] was 0.74 µg/mL. It also gave an IC50 (Titer in TZM.bl cells) [19] of 0.93 µg/mL, an IC80 (Titer in TZM.bl cells) [19] of 2.49 µg/mL and an IC50 (Titer in TZM.bl cells) [20] of 0.14 µg/mL. It also gave an IC80 (Titer in TZM.bl cells) [20] of 0.32 µg/mL, an IC50 (Titer in TZM.bl cells) [5] of 0.21 µg/mL and an IC80 (Titer in TZM.bl cells) [5] of 0.83 µg/mL. It also gave an IC50 (Titer in TZM.bl cells) [6] of 0.13 µg/mL, an IC80 (Titer in TZM.bl cells) [6] of 0.46 µg/mL and an IC50 (Titer in TZM.bl cells) [7] of 0.36 µg/mL. The IC80 (Titer in TZM.bl cells) [7] was 1.6 µg/mL, the IC50 (Titer in TZM.bl cells) [8] was 0.32 µg/mL and the IC80 (Titer in TZM.bl cells) [8] was 1.07 µg/mL. It also gave an IC50 (Titer in TZM.bl cells) [9] of 0.02 µg/mL, an IC80 (Titer in TZM.bl cells) [9] of 0.06 µg/mL and an IC50 (Titer in TZM.bl cells) [21] of 0.09 µg/mL. The IC80 (Titer in TZM.bl cells) [21] was 0.26 µg/mL, the IC50 (Titer in TZM.bl cells) [22] was 0.04 µg/mL and the IC80 (Titer in TZM.bl cells) [22] was 0.17 µg/mL. For the same substance, the IC50 (Titer in TZM.bl cells) [23] was > 50 µg/mL, the IC80 (Titer in TZM.bl cells) [23] was > 50 µg/mL and the IC50 (Titer in TZM.bl cells) [10] was 0.08 µg/mL. For the same substance, the IC80 (Titer in TZM.bl cells) [10] was 0.26 µg/mL, the IC50 (Titer in TZM.bl cells) [11] was 1.3 µg/mL and the IC80 (Titer in TZM.bl cells) [11] was 4 µg/mL. The IC80 (Titer in TZM.bl cells) [12] was 23 µg/mL, the IC50 (Titer in TZM.bl cells) [13] was 0.15 µg/mL and the IC80 (Titer in TZM.bl cells) [13] was 0.39 µg/mL. For the same substance, the IC50 (Titer in TZM.bl cells) [14] was 0.22 µg/mL, the IC80 (Titer in TZM.bl cells) [14] was 1.2 µg/mL and the IC50 (Titer in TZM.bl cells) [15] was 0.92 µg/mL. It also gave an IC80 (Titer in TZM.bl cells) [15] of 3.28 µg/mL, an IC50 (Titer in TZM.bl cells) [16] of 0.55 µg/mL and an IC80 (Titer in TZM.bl cells) [16] of 2.05 µg/mL.
For N49P18.1 (antibody), the IC50 [1] was 16.1 µg/mL, the IC80 [1] was 49.1 µg/mL and the MPI [1] was 83. For the same substance, the IC50 [2] was 39.7 µg/mL, the IC80 [2] was > 50 µg/mL and the MPI [2] was 56. The IC50 [3] was 2.34 µg/mL, the IC80 [3] was 9.64 µg/mL and the MPI [3] was 99. It also gave an IC50 [4] of 13.1 µg/mL, an IC80 [4] of 32.2 µg/mL and an MPI [4] of 93. The IC50 [5] was 4.25 µg/mL, the IC80 [5] was 11.7 µg/mL and the MPI [5] was 99. The IC50 [6] was 5.71 µg/mL, the IC80 [6] was 23.1 µg/mL and the MPI [6] was 94. The IC50 [7] was 12.5 µg/mL, the IC80 [7] was 49.8 µg/mL and the MPI [7] was 84. The IC50 [8] was 29 µg/mL, the IC80 [8] was > 50 µg/mL and the MPI [8] was 68. For the same substance, the IC50 [9] was 1.13 µg/mL, the IC80 [9] was 8.31 µg/mL and the MPI [9] was 100. For the same substance, the IC50 [10] was 8.04 µg/mL, the IC80 [10] was 22.6 µg/mL and the MPI [10] was 97. The IC50 [11] was 1.3 µg/mL, the IC80 [11] was 4.51 µg/mL and the MPI [11] was 99. For the same substance, the IC50 [12] was > 50 µg/mL, the IC80 [12] was > 50 µg/mL and the MPI [12] was 19. The IC50 [13] was 2.8 µg/mL, the IC80 [13] was 9.66 µg/mL and the MPI [13] was 99. For the same substance, the IC50 [14] was 9.65 µg/mL, the IC80 [14] was 40.2 µg/mL and the MPI [14] was 84. For the same substance, the IC50 [15] was 30.5 µg/mL, the IC80 [15] was > 50 µg/mL and the MPI [15] was 62. The IC50 [16] was 41.6 µg/mL, the IC80 [16] was > 50 µg/mL and the MPI [16] was 59.
